According to patent US20230165981A1, “[161Tb]-BASED RADIOPEPTIDES” (priority 2021, published 2023):
Where “and” joins values, the source holds several entries; their conditions need not be identical. Equal entries are not always repeated. Where two headings read alike, the source gives them in different places. Starred links: 1 amine or outer side, 2 acyl side, 3 side chain; linkers in the order of their positions; H or OH if unused. Positions of bridges follow the written chain, without caps; N, C: chain ends. Non-standard residues stand in square brackets, D forms with d. Residues, ends and D or L forms follow the SMILES beside them. *: point of attachment. DOTA = O=C(O)CN1CCN(CC(=O)O)CCN(CC(=O)*)CCN(CC(=O)O)CC1; X1 = NC(=O)Nc1ccc(CC(N[*:1])C(=O)[*:2])cc1; Phe(4-Cl) = N[CH](Cc1ccc(Cl)cc1)C(=O)O

Tests used:
[1] = n-octanol/PBS distribution coefficient (logD), shake-flask method; type: physicochemical; details: n-octanol/PBS pH 7.4
Method: An aliquot of the radiolabeled peptide (0.5 MBq, 25 µL) was added to a mixture of 1475 µL PBS pH 7.4 and 1500 µL n-octanol. The respective tubes were vortexed for 60 sec and centrifuged for 6 min at 2500 rpm followed by the measurement of the activity concentration in a defined volume of each layer using a γ-counter (Perkin Elmer, Wallac Wizard 1480). The logD values were calculated as the logarithm of the ratio of counts per minute (cpm) measured in the n-octanol phase relative to the cpm measured in the PBS pH 7.4 phase. The experiments were performed three times with five replicates for each radiopeptide and the logD value was expressed as the average ± standard deviation (SD) of the values obtained in each experiment. […] A p value <0.05 was considered statistically significant.

AR42J tumors = test: Preclinical therapy study in AR42J tumor-bearing mice; type: in vivo
[2] = Assessment of early side effects in therapy mice; details: endpoint of therapy
Method: Early side effects were assessed based on the RBW of each mouse which was monitored every second day. When an endpoint was reached or at the end of the study (after 49 days), relevant organs and tissues were collected, weighed and put into relation to the brain mass and body weight of the respective mouse. This allowed comparison of organ-to-brain and organ-to-body mass weight ratios. In addition, blood plasma parameters from blood collected immediately after euthanasia were measured.
RBW, organ mass and mass ratios at the endpoint: The RBW was monitored every second day. Mice were euthanized when a predefined endpoint criterion was reached or when the study was terminated at Day 49. RBWs, organ masses, organ mass ratios (kidney-to-brain, liver-to-brain and spleen-to-brain) and organ mass to body weight ratios (kidney-to-body mass, liver-to-body mass and spleen-to-body mass) were analyzed for significance using a one-way ANOVA test with a Tukey’s multiple comparisons post-test. A p-value of <0.05 was considered as statistically significant.
Blood plasma chemistry: Immediately before euthanasia of the mice that reached the endpoint, blood was sampled from the retrobulbar vein. The values of creatinine (CRE), blood urea nitrogen (BUN), alkaline phosphatase (ALP), total bilirubin (TBIL) and albumin (ALB) were determined in the plasma after centrifugation of the blood using a dry chemistry analyzer (DRI-CHEM 4000i, FUJIFILM, Japan). The average blood plasma parameters of each group were analyzed for significance using a one-way ANOVA test with a Tukey’s multiple comparisons post-test. A p-value of <0.05 was considered as statistically significant.

[3] = system: metastatic functional neuroendocrine neoplasm of the pancreatic tail; test: First-in-man scintigraphy and SPECT/CT; type: in vivo, human; details: 0.5-113 hours p.i., patient
Method: A patient with a metastatic functional neuroendocrine neoplasm of the pancreatic tail was injected with 161TbDOTATOC. Scintigraphy and SPECT were recorded. […] FIGS. 18A, 18B, 18C, and 18D show whole-body images obtained at 0.5 hours post-injection (p.i.) (FIG. 18A), 2.5 hours p.i. (FIG. 18B), 20 hours p.i. (FIG. 18C), and 113 hours p.i. (FIG. 18D) of 161Tb-DOTATOC. Early blood-pool activity was noticed in the heart (H) and blood vessels (BV).
FIGS. 19A, 19B, and 19C show SPECT/CT images obtained at 19 hours after injection of 161Tb-DOTATOC. (FIG. 19A) Coronal section, (FIG. 19B) sagittal section, and (FIG. 19C) transverse section.

AR42J tumor-bearing mice [4] = details: 0.2 nmol/mouse
Method: All applicable international, national, and/or institutional guidelines for the care and use of animals were followed. In particular, all animal experiments were carried out according to the guidelines of Swiss Regulations for Animal Welfare. The preclinical studies were ethically approved by the Cantonal Committee of Animal Experimentation and permitted by the responsible cantonal authorities (license N° 75721 and 79692). Five-week-old female, athymic nude mice (CD-1 Foxn-⅟nu) were obtained from Charles River Laboratories (Sulzfeld, Germany). Mice were subcutaneously inoculated with AR42J tumor cells (5 × 10^6 cells in 100 µL PBS) for SPECT/CT imaging, biodistribution and therapy studies. The SPECT/CT and biodistribution studies were performed 10-14 days after tumor cell inoculation when the tumor size reached a volume of ~250 mm^3.
The mice were sacrificed at 0.5 h, 2 h, 4 h, 24 h and 48 h p.i, selected tissues and organs were collected, weighed, and the accumulated activity was counted using a γ-counter (Perkin Elmer). The decay-corrected data were listed as % IA/g. The data were analyzed for significance using a two-way ANOVA with Tukey’s multiple comparison post-tests. A p-value of <0.05 was considered statistically significant.

AR42J tumor-bearing mice [5] = test: Biodistribution: optimum injected molar amount; details: 2 h p.i.
AR42J tumor-bearing mice [6] = details: 24 h p.i., 1 nmol/mouse
Method: (§1) Five-week-old female, athymic nude mice (CD-1 Foxn-⅟nu) were obtained from Charles River Laboratories (Sulzfeld, Germany). Mice were subcutaneously inoculated with AR42J tumor cells (5 × 10^6 cells in 100 µL PBS) for SPECT/CT imaging, biodistribution and therapy studies. The SPECT/CT and biodistribution studies were performed 10-14 days after tumor cell inoculation when the tumor size reached a volume of ~250 mm^3.
(§2) The mice were sacrificed at 2 h and 24 h post injection (p.i.). Selected tissues and organs were collected, weighed, and the accumulated activity was counted in a γ-counter. The decay-corrected data were listed as the percentage of the injected activity per gram of tissue mass (% IA/g). The data were analyzed for significance using a two-way ANOVA with Tukey’s multiple comparison post-tests. A p-value of <0.05 was considered statistically significant.

in vivo = details: female, athymic nude (CD-1 Foxn-1nu), mouse, iv, 1 nmol/mouse, total radioactivity
Method: as §1, §2

## C[C@@H](O)[C@@H]1NC(=O)[C@H](CCCCN)NC(=O)[C@@H](Cc2c[nH]c3ccccc23)NC(=O)[C@H](Cc2ccc(O)cc2)NC(=O)[C@@H](NC(=O)[C@@H](Cc2ccccc2)NC(=O)CN2CCN(CC(=O)O)CCN(CC(=O)O)CCN(CC(=O)O)CC2)CSSC[C@@H](C(=O)N[C@H](CO)[C@@H](C)O)NC1=O [[^161Tb]Tb-DOTATOC] [metal not drawn]
[1]
  LogD: -3.3 ± 0.2
AR42J tumors; 2 x 10 MBq, 0.2 nmol
  Median survival: 21 days
AR42J tumors; 2 x 10 MBq, 0.2 nmol, Day 0 and 7
  tumor growth delay: 9.0 ± 5.5 days
AR42J tumors; 2 x 10 MBq, 0.2 nmol, end of study = 49 days
  Time frame of euthanasia: 20 to 26 days
AR42J tumors; regrowth phase
  tumor doubling time: 3.4 ± 3.6 days
[2]
  ALB (albumin): 23 ± 2 g/L
  ALP (alkaline phosphatase): 76 ± 21 U/L
  BUN (blood urea nitrogen): 5.8 ± 1.0 mmol/L
  CRE (plasma creatinine): <18 (n=6) µmol/L
  TBIL (total bilirubin): < 3 µmol/L and 4 ± 1 µmol/L
[3]
  uptake in whole-body scintigraphy: Pathological uptake was demonstrated in the bilobar liver
AR42J tumor-bearing mice [4]; 0.5 h p.i.
  Biodistribution: AR42J Tumor: 15 ± 2 % IA/g
AR42J tumor-bearing mice [4]; 2 h p.i.
  Biodistribution: AR42J Tumor: 14 ± 1 % IA/g
  Biodistribution: Adrenals: 0.43 ± 0.11 % IA/g
  Biodistribution: Femur: 0.12 ± 0.03 % IA/g
  Biodistribution: Heart: ≤0.10 % IA/g
  Biodistribution: Intestines: 0.24 ± 0.01 % IA/g
  Biodistribution: Kidneys: 9.4 ± 0.4 % IA/g
  Biodistribution: Liver: 0.19 ± 0.03 % IA/g
  Biodistribution: Lung: 0.47 ± 0.05 % IA/g
  Biodistribution: Muscle: ≤0.10 % IA/g
  Biodistribution: Pancreas: 1.5 ± 0.2 % IA/g
  Biodistribution: Spleen: 0.18 ± 0.02 % IA/g
AR42J tumor-bearing mice [5]; 0.040 nmol/mouse
  Tu-to-adr (tumor-to-adrenals): 24 ± 1
  Tu-to-blood: 187 ± 12
  Tu-to-kidney: 1.8 ± 0.2
  Tu-to-liver: 73 ± 3 and 74 ± 3
AR42J tumor-bearing mice [5]; 0.20 nmol/mouse
  Tu-to-adr (tumor-to-adrenals): 34 ± 7
  Tu-to-blood: 221 ± 56
  Tu-to-kidney: 1.5 ± 0.1
  Tu-to-liver: 76 ± 14
AR42J tumor-bearing mice [5]; 1.0 nmol/mouse
  Biodistribution: AR42J Tumor: 8.2 ± 0.2 % IA/g
  Biodistribution: Adrenals: 0.25 ± 0.06 % IA/g
  Biodistribution: Blood: ≤0.10 % IA/g
  Biodistribution: Femur: ≤0.10 % IA/g
  Biodistribution: Heart: ≤0.10 % IA/g
  Biodistribution: Intestines: 0.21 ± 0.13 % IA/g
  Biodistribution: Kidneys: 9.9 ± 1.3 % IA/g
  Biodistribution: Liver: 0.17 ± 0.01 % IA/g
  Biodistribution: Lung: 0.27 ± 0.03 % IA/g
  Biodistribution: Muscle: ≤0.10 % IA/g
  Biodistribution: Pancreas: 0.71 ± 0.07 % IA/g
  Biodistribution: Spleen: 0.11 ± 0.02 % IA/g
  Biodistribution: Stomach: 0.74 ± 0.38 % IA/g

## CC(O)C1NC(=O)C(CCCCN)NC(=O)C(Cc2ccc(NC(N)=O)cc2)NC(=O)C(Cc2ccc(O)cc2)NC(=O)C(NC(=O)C(Cc2ccc(Cl)cc2)NC(=O)CN2CCN(CC(=O)O)CCN(CC(=O)O)CCN(CC(=O)O)CC2)CSSCC(C(=O)NC(Cc2ccc(O)cc2)C(N)=O)NC1=O (centres unmarked) [metal not drawn] ({DOTA}-[Phe(4-Cl)]CY[X1]KTCY-NH2; disulfide 2-7; configuration not given here)
[2]
  ALB (albumin): 22 ± 1 g/L
  ALP (alkaline phosphatase): 65 ± 15 U/L
  BUN (blood urea nitrogen): 9.1 ± 1.5 mmol/L
  CRE (plasma creatinine): <18 (n=5) 18 (n=1) µmol/L
  TBIL (total bilirubin): <3 (n=5) 3 (n=1) µmol/L
AR42J tumor-bearing mice [6]
  Tumor-to-liver: 63 ± 18
AR42J tumor-bearing mice [4]; 2 h p.i.
  Biodistribution: Muscle: ≤0.10 % IA/g
  Biodistribution: Spleen: 0.41 ± 0.08 % IA/g
In vivo; femur
  tissue uptake at 2 h: 0.2 ± 0.05 %ID/g
In vivo; kidneys
  tissue uptake at 2 h: 12 ± 2 %ID/g
In vivo; lung
  tissue uptake at 2 h: 1 ± 0.2 %ID/g
In vivo; spleen
  tissue uptake at 24 h: 0.13 ± 0.03 %ID/g
